Here are results for 1 molecule from article PMC5460035 (Nature Communications, 2017).

This assay concerns the target T1, RUVBL2-His (human, UniProt Q9Y230 1-463).
T1 construct: RUVBL2, AAA+ ATPase; cDNA amplified from a Mammalian Gene Collection clone, cloned into pET-23a+; also called polyhistidine-tagged RUVBL2; source: E. coli One Shot BL21 Star DE3, purified (Ni-NTA agarose)
The assay can be described thus: pull-down; 500 ng GST-tagged protein with 100 ng His-tagged protein and glutathione beads in 1 ml binding buffer (50 mM NaCl, 50 mM HEPES-KOH pH 7.6, 0.1% NP-40), 2 h at 4 °C; in presence of ATP, ADP or γ-S-ATP; immunoblot. The conditions noted are these: both partners purified. Background: In western blotting, separated proteins are transferred to a membrane and probed.

T1 sequence (Q9Y230 whole entry): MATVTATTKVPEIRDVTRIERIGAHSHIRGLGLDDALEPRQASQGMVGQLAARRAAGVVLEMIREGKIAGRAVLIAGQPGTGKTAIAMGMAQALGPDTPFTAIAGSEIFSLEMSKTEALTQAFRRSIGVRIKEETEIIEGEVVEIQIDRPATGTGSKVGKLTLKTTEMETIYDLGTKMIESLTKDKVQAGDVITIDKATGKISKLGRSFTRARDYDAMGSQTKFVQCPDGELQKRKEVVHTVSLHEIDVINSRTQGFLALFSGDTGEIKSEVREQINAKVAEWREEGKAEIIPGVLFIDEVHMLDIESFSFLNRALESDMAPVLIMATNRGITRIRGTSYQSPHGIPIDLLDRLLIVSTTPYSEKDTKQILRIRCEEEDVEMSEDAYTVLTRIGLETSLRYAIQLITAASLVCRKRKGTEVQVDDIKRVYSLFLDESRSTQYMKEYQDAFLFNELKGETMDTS

B1: GST-ZNHIT2 (full-length) (natural protein, human, UniProt Q9UHR6 1-403, looked up)
chain: MEPAGPCGFCPAGEVQPARYTCPRCNAPYCSLRCYRTHGTCAENFYRDQVLGELRGCSAPPSRLASALRRLRQQRETEDEPGEAGLSSGPAPGGLSGLWERLAPGEKAAFERLLSRGEAGRLLPPWRPWWWNRGAGPQLLEELDNAPGSDAAELELAPARTPPDSVKDASAAEPAAAERVLGDVPGACTPVVPTRIPAIVSLSRGPVSPLVRFQLPNVLFAYAHTLALYHGGDDALLSDFCATLLGVSGALGAQQVFASAEEALQAAAHVLEAGEHPPGPLGTRGAMHEVARILLGEGPTNQKGYTLAALGDLAQTLGRARKQAVAREERDHLYRARKKCQFLLAWTNENEAALTPLALDCARAHQAHAVVAEEVAALTGELERLWGGPVPPAPRTLIEELPS
notes: ZNHIT2, human ZNHIT family member; cDNA amplified from a Mammalian Gene Collection clone, cloned into pGEX-4T-1; also called GST-tagged ZNHIT2; source: E. coli One Shot BL21 Star DE3, purified (Glutathione Sepharose 4B)
Regarding B1, the binding result is listed as “binds”.
